From article PMC8546571, “Methylation of PhoP by CheR Regulates Salmonella Virulence” (mBio, 2021)
Residue numbers refer to the chain shown, from its start. In names and notes the source's numbering stands.

B1: wild-type PhoP (6×His-tagged, recombinant) (natural protein)
chain: MMRVLVVEDNALLRHHLKVQLQDSGHQVDAAEDAREADYYLNEHLPDIAIVDLGLPDEDGLSLIRRWRSSDVSLPVLVLTAREGWQDKVEVLSSGADDYVTKPFHIEEVMARMQALMRRNSGLASQVINIPPFQVDLSRRELSVNEEVIKLTAFEYTIMETLIRNNGKVVSKDSLMLQLYPDAELRESHTIDVLMGRLRKKIQAQYPHDVITTVRGQGYLFELR
notes: PhoP, response regulator of the PhoP/PhoQ two-component system, S. Typhimurium strain 14028S; phoP PCR amplified from genomic DNA and cloned into pQE80; also called PhoP WT; source: E. coli BL21, purified (Ni-NTA); not shown: His6, C-terminal, kept
B2: PhoP D9A variant (natural protein)
chain: B1 chain with D9A
notes: PhoP, S. Typhimurium strain 14028S, with D9A; source: E. coli BL21, purified (Ni-NTA); not shown: His6, C-terminal, kept
B3: PhoP purified from the bacteria with an endogenous level of cheR expression (natural protein)
chain: B1 chain
notes: PhoP, S. Typhimurium strain 14028S, His-tagged and purified from Salmonella; also called PhoP from control cells; PhoP isolated from the wild-type strain; source: S. Typhimurium with an endogenous level of cheR expression, purified (His tag); not shown: His6, C-terminal, kept
B4: PhoP E8A variant (natural protein)
chain: B1 chain with E8A
notes: PhoP, S. Typhimurium strain 14028S, with E8A; source: E. coli BL21, purified (Ni-NTA); not shown: His6, C-terminal, kept
B5: PhoP E107A variant (natural protein)
chain: B1 chain with E107A
notes: PhoP, S. Typhimurium strain 14028S, with E107A; source: E. coli BL21, purified (Ni-NTA); not shown: His6, C-terminal, kept

Assays:
[1] = tested on: PhoP from cheR-overexpressing cells (methylated PhoP) (Salmonella enterica serovar Typhimurium 14028S); test: ITC; settings: EMSA: 25 mM Tris-HCl pH 8.0, 50 mM KCl, 5 mM MgCl2, 0.5 mM EDTA, 10% glycerol, room temp 20 min, 1.6 pmol probe in 10 ul; ITC: 6.15 uM DNA into 0.6 uM PhoP …
[2] = tested on: PhoP from control Salmonella cells (Salmonella enterica serovar Typhimurium 14028S); test: ITC; settings: EMSA: 25 mM Tris-HCl pH 8.0, 50 mM KCl, 5 mM MgCl2, 0.5 mM EDTA, 10% glycerol, room temp 20 min, 1.6 pmol probe in 10 ul; ITC: 6.15 uM DNA into 0.6 uM PhoP …
[3] = target: the molecule itself; test: cross-linking; purified His-tagged PhoP incubated with 1 mM DSS in 50 mM HEPES-Na pH 7.5, 150 mM NaCl, 10 mM MgCl2, 20% glycerol, 0.05% Tween 20, 25°C, 30 min; Western blot with anti-His antibody; monomer to dimer

| Molecule | Kd [1] [nM] | Kd [2] [nM] | binding result [3] |
| --- | --- | --- | --- |
| phoP promoter DNA / PhoP box consensus (ITC) | 0.476 | 0.122 |  |
| B1 |  |  | binds |
| B2 |  |  | binds |
| B3 |  |  | binds |
| B4 |  |  | binds |
| B5 |  |  | binds |
